These results are taken from article PMC8990738.

In the test the target is depolymerase Dpo71 (Acinetobacter baumannii phage vB_AbaM-IME-AB2). Nature of the test: SEC; Superose 6 Increase column on AKTA FPLC, equilibrated with PBS; gel filtration markers of 150 and 200 kDa; purified Dpo71 alone.

On to depolymerase Dpo71 (enzyme), for which the stoichiometry N was found to be 3.
